According to PMC11320570:

Key:
Experiment in all cases: ELISA
[1] = molecular target: 513 engineered and humanized antibody
2H12 mouse antibody = molecular target: 2H12 mouse antibody
3H5 mouse antibody = molecular target: 3H5 mouse antibody

| Substance | Kd [1] [pM] | Kd (2H12 mouse antibody) [pM] | Kd (3H5 mouse antibody) [pM] |
| --- | --- | --- | --- |
| DENV-2 EDIII wild-type Fc-fusion antigen S298N; S300T | 75 | 710 | 820 |
| DENV-2 EDIII wild-type Fc-fusion antigen S298N; S300T; V309N; E311T; H317N | > 265 | – | 780 |
| DENV-2 EDIII wild-type Fc-fusion antigen S298N; S300T; H317N | 81 | – | 820 |
